Experiment: yeast display, Sf9 membrane polyspecificity reagent, FACS + sequencing; frameworks hold sequencing errors
Outline: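 Synthetic nanobody libraries on Saccharomyces cerevisiae BJ5465 were galactose-induced for 36–48 hours, stained 1 hour at 4 °C with 10% biotinylated, detergent-solubilized Sf9 membrane reagent and enriched on streptavidin microbeads. FACS then separated cells into low and high (top ~1%) gates by anti-HA (expression) and streptavidin (reagent binding) fluorescence. Genes were colony-PCR amplified, MiSeq 2 × 250 sequenced and CDR-length filtered. A clone's polyreactivity label is that of its gate of origin.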

| Sequence | polyreactivity (PSR sort gate) |
| --- | --- |
| QVQLVESGGGLVQAGGSLRLSCAASGRIFSYYAMGWYRQAPGKERELVAVISRRGDNTYYADSVKGRFTISRDNAKNTVYLQMNSLKPEDTAVYYCAVQFVFIFYYGYDYWGQGTQVTVSS | high polyreactivity |
| QVQLVESGGGLVQAGGSLRLSCAASGSTFQPYAMGWSRQAPGKERECVATISGSAGSTYYADSVKGRFKISRDNAKNTVYLQMNSLKPEDTAVYYCKAESPEGYRLLDYWGQGTQVTVSS | low polyreactivity |
| QVQLLESGGGLVQAGGSLRLSCAASGRTFRYNAMGWYRQAPGKERELVAAITGSGGSTYYADSVKGRFTISRDNAKNTVYLQMNSLKPEDTAVYYCARAYSYRLYPYGSWGQGTQVTVSS | high polyreactivity |
| QVQLVESGGGLVQAGGSLRLSCAASGGTFGYYAMGWYRQAPGKERELVAAITSGGSTNYADSVKGRFTISRDNAKNTVYLQMNSLKPEDTAVYYCAARYINRYPKAQPTDRSIYYWGQGTQVTVSS | high polyreactivity |
| QVQLVESGGGLVQAGGSLRLSCAASGRNYWVYAMGWYREAPGKERELVASIDSGSRTTYADSVKGRFTISRDNAKNTVYLQMISLKQEDTAVYYSATSSYTYSPRVWYRWRRDYWGQGTQVNVSS | high polyreactivity |
| QVQLVESGGGLVQAGGSLRLSCAASGNIFGVYAMGWYRQAPGKERELVAAITSGGTSTSYADSVKGRFTISRDNAKNTVYLQINSLKPEDTAVYYCATESSGKLSEYAYWGQGTQVTVSS | low polyreactivity |
| QVQLVESGGGLVQAGGSLRLSCAASGSTSKSYTMGWYRQAPGKERELVAAISYSGVSTYYADSVKGRFTISRDNAKNTVYLQMNSLKPEDTAVYDGAADWVPRQYPGRGGYWGQGTQVTVSS | high polyreactivity |
| QVQLVESGGGLVQAGGSLRLSCAASGSIFFYYAMGWYRQAPGKERELVASISTDGSTYADSVKGRFTISRDNAKNTVYLQMNSLKPEDTAVYYCATRGAEAERFASYDFDYWGQGTQVTVSS | low polyreactivity |
| QVQLVESGGGLVQAGGSLRFSCADSGSTFGTYAMGWYRQAPGKERELVAAISWSGGSTYYADSVKGRFTISRDNAKNTVYLQMNSLKPEDTAVYWGQGTQVTVSS | low polyreactivity |
| QVQLVESGGGLVQAGGSLRLSCAASGSTFGYNAMGGYRQAPGKERELVAAITWTGASTYYADSVKGRFTISRDNAKNTVYLQMNSLKPEDTAVYYCNLVGYQSMNYWGQGTQVTVSS | low polyreactivity |
| QVQLVESGGGLVQAGGSLRLSCAASGRTFPTYAMGWDRQAPGKERELVAAITTSGGSTYADSVMGRFTISRDNAKNTVYLQMNSLKPEDTAVYYCATRSFYGGYYYSSGSEFDYWGQGTQVTVSS | low polyreactivity |
| QVQLVESGVGIVQAGGSLRLSCAASGSTYGYNAMGWYRQAPGKESEFVARIRSSGSTTYADSVKRRFTISRDNAMNTVYLLMNSLNPEDNAVYYWAARRYFYLVVYYSWGQCTQVTVSS | high polyreactivity |
| QVQLVESGGGLVQAGGSLRLSCAASGFIFYTYAMGWYRQAPGKERELVAAITWDGGSTYYADSVKGRFTISRDTAKNTVYLQMNSLKPEDTAVYYCNAEYGYIRGNYGYWGQGTQVTVSS | low polyreactivity |
| QVQLVESWGGLVQAGGSLRLSCAASGSTIAYYVLGWYRQAPRKERELVAAINFSGDSTYYADSVKGRFTNSRDNAKNTVNLQMNSLKPEDTAVYYCAVDWGEYIDTSVKRDISYYWGQGTQVTVSS | low polyreactivity |
| QVQLVESGGGLVQAGGSLRLSCAASGSTFRYNAMGWYIQAPGKERELVAAITSTGDSTYYADSVKGRFTISRDNAKNTVYLQMNSLKPEYTAVYYCAARSYASPGWRYEYWGQGTQVTVSS | low polyreactivity |
| QVQLVESGGGLVQAGGSLRLSCAASGRIFLYYTMGWYRQATWKERELVAAITRSGGSTYYADSVKGRFTISRDNAKNTVYLQMNSLKPEDTAVYYCNRAYVRYVPMNYWGQGTQVTVSS | high polyreactivity |
| QVQLVESGGGLVQAGGSLRLSCAASGRTYIVNVMGWYRQAPGKERELVAAINWSTGRTYYADSVKGRFTISRDNAKNTVYLQMNSLKPEDTAVYYCAAEEFDSFWWGYYEMDYWGQGTQVTVSS | high polyreactivity |

From the nanobody polyreactivity screen of Harvey et al. (2022)
